Data published in US11419945B2, “Antigen binding proteins” (Glaxo Group Limited, priority 2011, dated 2022).

Legend:
Cyno in house BCMA = assay: ProteOn analysis of CA8 chimeric and humanised constructs, cyno in house BCMA; assay type: binding; conditions: Run 1, Cyno in house BCMA, 25° C.; for ka: in M-1s-1 (unit assumed); for kd: in s-1 (unit assumed)
Human in house BCMA = target: T1, Human in house BCMA (Homo sapiens, UniProt Q02223); assay: ProteOn analysis of CA8 chimeric and humanised constructs, human in house BCMA; assay type: binding; conditions: for ka / kd: Run 1, Human in house BCMA, ProteOn, 25° C.; for ka: in M-1s-1 (unit assumed); for kd: in s-1 (unit assumed); for off rate: Run 2, ProteOn, recombinant human BCMA, no affinity values obtained
T1 construct: CD33 signal peptide (N); TEV site (internal); Fc (C); made in house
T1 sequence (Q02223 with tags, fused parts or gaps limits assumed): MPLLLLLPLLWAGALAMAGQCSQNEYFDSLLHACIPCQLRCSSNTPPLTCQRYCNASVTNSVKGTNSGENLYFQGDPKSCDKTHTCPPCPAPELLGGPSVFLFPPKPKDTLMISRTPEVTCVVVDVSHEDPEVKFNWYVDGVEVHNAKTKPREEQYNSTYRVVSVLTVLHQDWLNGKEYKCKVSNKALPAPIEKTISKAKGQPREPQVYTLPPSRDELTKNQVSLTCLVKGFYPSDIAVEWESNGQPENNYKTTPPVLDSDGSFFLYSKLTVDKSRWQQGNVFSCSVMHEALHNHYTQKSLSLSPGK
Experimental: The initial screen of CA8 chimeric and humanised variants was carried out on the ProteOn XPR36 (Biorad). The method was as follows; Protein A was immobilised on a GLC chip (Biorad, Cat No: 176-5011) by primary amine coupling, CA8 variants were then captured on this surface and recombinant human BCMA (in house or commercial US Biological, B0410) materials (run 2 only)) passed over at 256, 64, 16, 4, 1 nM with a 0 nM injection (i.e. buffer alone) used to double reference the binding curves, the buffer used is the HBS-EP buffer. 50 mM NaOH was used to regenerate the capture surface. The data was fitted to the 1:1 model using the analysis software inherent to the ProteOn XPR36. Run 1 corresponds to the first screen of humanised CA8 variants (JO to J5 series) and run 2 to the second screen of humanised CA8 variants (J5 to J9 series). Both runs were carried out at 25° C.

Sequence of Cyno in house BCMA (as listed by the source): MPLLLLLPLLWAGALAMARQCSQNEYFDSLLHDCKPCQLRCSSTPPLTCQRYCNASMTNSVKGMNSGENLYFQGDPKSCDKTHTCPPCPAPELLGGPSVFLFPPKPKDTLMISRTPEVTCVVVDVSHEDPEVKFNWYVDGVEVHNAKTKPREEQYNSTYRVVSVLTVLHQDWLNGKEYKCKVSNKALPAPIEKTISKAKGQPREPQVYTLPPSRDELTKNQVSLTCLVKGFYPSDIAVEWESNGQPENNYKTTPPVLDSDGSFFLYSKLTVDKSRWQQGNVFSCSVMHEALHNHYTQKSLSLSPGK

Molecule	ka (Cyno in house BCMA)	kd (Cyno in house BCMA)	ka (Human in house BCMA)	kd (Human in house BCMA)	off rate (Human in house BCMA)
CA8 humanised J5M2: humanised CA8 anti-BCMA antibody, VH J5 (SEQ ID NO:21) + VL M2 (SEQ ID NO:35) (antibody, V domains shown, Humansed antibody sequence) VH: QVQLVQSGAEVKKPGSSVKVSCKGSGYTFTNYWMHWVRQAPGQGLEWMGATYRGHSDTYYNQKFKGRVTITADTSTSTAYMELSSLRSEDTAVYYCTRGAIYDGYDVLDNWGQGTLVTVSS VL: DIQLTQSPSSLSASVGDRVTITCSASQDISNYLNWYQQKPGKAPELVIYYTSNLHSGVPSRFSGSGSGTDYTLTISSLQPEDFATYYCQQYRKLPWTFGQGTKLEIKR	4.30E+05	4.70E−05	2.67E+05	3.21E−05	beyond the sensitivity of the assay
CA8 humanised J4M1: humanised CA8 anti-BCMA antibody, VH J4 (SEQ ID NO:19) + VL M1 (SEQ ID NO:33) (antibody, V domains shown, Humansed antibody sequence) VH: QVQLVQSGAEVKKPGSSVKVSCKGSGYTFTNYWMHWVRQAPGQGLEWIGATYRGHSDTYYNQKFKGRATLTADTSTSTAYMELSSLRSEDTAVYYCTRGAIYNGYDVLDNWGQGTLVTVSS VL: DIQMTQSPSSLSASVGDRVTITCSASQDISNYLNWYQQKPGKAPKLLIYYTSNLHSGVPSRFSGSGSGTDYTLTISSLQPEDFATYYCQQYRKLPWTFGQGTKLEIKR	3.50E+05	7.10E−05	2.54E+05	7.04E−05	
CA8 humanised J3M1: humanised CA8 anti-BCMA antibody, VH J3 (SEQ ID NO:17) + VL M1 (SEQ ID NO:33) (antibody, V domains shown, Humansed antibody sequence) VH: QVQLVQSGAEVKKPGSSVKVSCKGSGYTFTNYWMHWVRQAPGQGLEWMGATYRGHSDTYYNQKFKGRVTITADTSTSTAYMELSSLRSEDTAVYYCTRGAIYNGYDVLDNWGQGTLVTVSS VL: DIQMTQSPSSLSASVGDRVTITCSASQDISNYLNWYQQKPGKAPKLLIYYTSNLHSGVPSRFSGSGSGTDYTLTISSLQPEDFATYYCQQYRKLPWTFGQGTKLEIKR	4.04E+05	7.93E−05	2.85E+05	1.25E−04	
CA8 humanised J5M1: humanised CA8 anti-BCMA antibody, VH J5 (SEQ ID NO:21) + VL M1 (SEQ ID NO:33) (antibody, V domains shown, Humansed antibody sequence) VH: QVQLVQSGAEVKKPGSSVKVSCKGSGYTFTNYWMHWVRQAPGQGLEWMGATYRGHSDTYYNQKFKGRVTITADTSTSTAYMELSSLRSEDTAVYYCTRGAIYDGYDVLDNWGQGTLVTVSS VL: DIQMTQSPSSLSASVGDRVTITCSASQDISNYLNWYQQKPGKAPKLLIYYTSNLHSGVPSRFSGSGSGTDYTLTISSLQPEDFATYYCQQYRKLPWTFGQGTKLEIKR	4.81E+05	5.41E−05	2.97E+05	4.32E−05	beyond the sensitivity of the assay
CA8 humanised J3M2: humanised CA8 anti-BCMA antibody, VH J3 (SEQ ID NO:17) + VL M2 (SEQ ID NO:35) (antibody, V domains shown, Humansed antibody sequence) VH: QVQLVQSGAEVKKPGSSVKVSCKGSGYTFTNYWMHWVRQAPGQGLEWMGATYRGHSDTYYNQKFKGRVTITADTSTSTAYMELSSLRSEDTAVYYCTRGAIYNGYDVLDNWGQGTLVTVSS VL: DIQLTQSPSSLSASVGDRVTITCSASQDISNYLNWYQQKPGKAPELVIYYTSNLHSGVPSRFSGSGSGTDYTLTISSLQPEDFATYYCQQYRKLPWTFGQGTKLEIKR	3.69E+05	5.87E−05	2.66E+05	9.64E−05	
CA8 humanised J1M2: humanised CA8 anti-BCMA antibody, VH J1 (SEQ ID NO:13) + VL M2 (SEQ ID NO:35) (antibody, V domains shown, Humansed antibody sequence) VH: QVQLVQSGAEVKKPGSSVKVSCKASGYTFTNYWMHWVRQAPGQGLEWMGATYRGHSDTYYNQKFKGRVTITADKSTSTAYMELSSLRSEDTAVYYCARGAIYNGYDVLDNWGQGTLVTVSS VL: DIQLTQSPSSLSASVGDRVTITCSASQDISNYLNWYQQKPGKAPELVIYYTSNLHSGVPSRFSGSGSGTDYTLTISSLQPEDFATYYCQQYRKLPWTFGQGTKLEIKR	3.19E+05	9.67E−05	2.15E+05	2.46E−04	
CA8 humanised J0M1: humanised CA8 anti-BCMA antibody, VH J0 (SEQ ID NO:11) + VL M1 (SEQ ID NO:33) (antibody, V domains shown, Humansed antibody sequence) VH: QVQLVQSGAEVKKPGSSVKVSCKASGGTFSNYWMHWVRQAPGQGLEWMGATYRGHSDTYYNQKFKGRVTITADKSTSTAYMELSSLRSEDTAVYYCARGAIYNGYDVLDNWGQGTLVTVSS VL: DIQMTQSPSSLSASVGDRVTITCSASQDISNYLNWYQQKPGKAPKLLIYYTSNLHSGVPSRFSGSGSGTDYTLTISSLQPEDFATYYCQQYRKLPWTFGQGTKLEIKR	3.32E+05	1.67E−04	2.31E+05	8.60E−05	
CA8 humanised J0M2: humanised CA8 anti-BCMA antibody, VH J0 (SEQ ID NO:11) + VL M2 (SEQ ID NO:35) (antibody, V domains shown, Humansed antibody sequence) VH: QVQLVQSGAEVKKPGSSVKVSCKASGGTFSNYWMHWVRQAPGQGLEWMGATYRGHSDTYYNQKFKGRVTITADKSTSTAYMELSSLRSEDTAVYYCARGAIYNGYDVLDNWGQGTLVTVSS VL: DIQLTQSPSSLSASVGDRVTITCSASQDISNYLNWYQQKPGKAPELVIYYTSNLHSGVPSRFSGSGSGTDYTLTISSLQPEDFATYYCQQYRKLPWTFGQGTKLEIKR	3.26E+05	1.84E−04	2.25E+05	6.97E−05	
CA8 humanised J1M1: humanised CA8 anti-BCMA antibody, VH J1 (SEQ ID NO:13) + VL M1 (SEQ ID NO:33) (antibody, V domains shown, Humansed antibody sequence) VH: QVQLVQSGAEVKKPGSSVKVSCKASGYTFTNYWMHWVRQAPGQGLEWMGATYRGHSDTYYNQKFKGRVTITADKSTSTAYMELSSLRSEDTAVYYCARGAIYNGYDVLDNWGQGTLVTVSS VL: DIQMTQSPSSLSASVGDRVTITCSASQDISNYLNWYQQKPGKAPKLLIYYTSNLHSGVPSRFSGSGSGTDYTLTISSLQPEDFATYYCQQYRKLPWTFGQGTKLEIKR	3.33E+05	1.47E−04	2.27E+05	3.43E−04	
CA8 humanised J2M2: humanised CA8 anti-BCMA antibody, VH J2 (SEQ ID NO:15) + VL M2 (SEQ ID NO:35) (antibody, V domains shown, Humansed antibody sequence) VH: QVQLVQSGAEVKKPGSSVKVSCKASGYTFTNYWMHWVRQAPGQGLEWMGATYRGHSDTYYNQKFKGRVTITADKSTSTAYMELSSLRSEDTAVYYCTRGAIYNGYDVLDNWGQGTLVTVSS VL: DIQLTQSPSSLSASVGDRVTITCSASQDISNYLNWYQQKPGKAPELVIYYTSNLHSGVPSRFSGSGSGTDYTLTISSLQPEDFATYYCQQYRKLPWTFGQGTKLEIKR	2.98E+05	3.17E−05	2.05E+05	9.87E−05	
CA8 humanised J4M2: humanised CA8 anti-BCMA antibody, VH J4 (SEQ ID NO:19) + VL M2 (SEQ ID NO:35) (antibody, V domains shown, Humansed antibody sequence) VH: QVQLVQSGAEVKKPGSSVKVSCKGSGYTFTNYWMHWVRQAPGQGLEWIGATYRGHSDTYYNQKFKGRATLTADTSTSTAYMELSSLRSEDTAVYYCTRGAIYNGYDVLDNWGQGTLVTVSS VL: DIQLTQSPSSLSASVGDRVTITCSASQDISNYLNWYQQKPGKAPELVIYYTSNLHSGVPSRFSGSGSGTDYTLTISSLQPEDFATYYCQQYRKLPWTFGQGTKLEIKR	3.44E+05	6.15E−05	2.51E+05	7.06E−05	
CA8 humanised J2M1: humanised CA8 anti-BCMA antibody, VH J2 (SEQ ID NO:15) + VL M1 (SEQ ID NO:33) (antibody, V domains shown, Humansed antibody sequence) VH: QVQLVQSGAEVKKPGSSVKVSCKASGYTFTNYWMHWVRQAPGQGLEWMGATYRGHSDTYYNQKFKGRVTITADKSTSTAYMELSSLRSEDTAVYYCTRGAIYNGYDVLDNWGQGTLVTVSS VL: DIQMTQSPSSLSASVGDRVTITCSASQDISNYLNWYQQKPGKAPKLLIYYTSNLHSGVPSRFSGSGSGTDYTLTISSLQPEDFATYYCQQYRKLPWTFGQGTKLEIKR	2.96E+05	6.46E−05	2.04E+05	1.72E−04	
